Laboratory results published in paper PMC6123785.

Assays:
[1] = target: parathyroid hormone receptor 1 BRET-biosensor PTHR1_(Nluc/Halo618) (UniProt Q03431)
[2] = target: parathyroid hormone receptor 1 BRET-biosensor PTHR1_(Nluc/Halo618) (UniProt Q03431); remark: listed apart in the source
PTHR1 wild-type receptor = PTHR1 wild-type receptor (UniProt Q03431)

PTH(1-34) (peptide) showed a change in intramolecular BRET of the PTHR1 (Nluc/Halo618) sensor in intact cells, 96-well plate, 37 °C, saturating ligand (Fig. 3d); serial dilutions for a concentration-response curve (Fig. 3e) [1] of 10%, a Supplementary Figure 6f: pEC50 of PTH(1-34), PTHR1 mediated cAMP response (FRET-based H187-EPAC cAMP sensor co-transfected with the biosensor PTHR1Nluc/Halo) (pEC50 (-log M)) [2] of 7.57 and a Supplementary Figure 6f: pEC50 of PTH(1-34), PTHR1 mediated cAMP response (FRET-based H187-EPAC cAMP sensor co-transfected with the wild-type receptor) (pEC50 (-log M)) (PTHR1 wild-type receptor) of 9.52.
